Results: paper PMC9344466, “The Dual Roles of MAGE-C2 in p53 Ubiquitination and Cell Proliferation Through E3 Ligases MDM2 and TRIM28” (Frontiers in Cell and Developmental Biology, 2022)

B1: GST-tagged MAGE-C2 full length (residues 1-373) (natural protein, human, UniProt Q9UBF1 1-373, looked up)
chain: MPPVPGVPFRNVDNDSPTSVELEDWVDAQHPTDEEEEEASSASSTLYLVFSPSSFSTSSSLILGGPEEEEVPSGVIPNLTESIPSSPPQGPPQGPSQSPLSSCCSSFSWSSFSEESSSQKGEDTGTCQGLPDSESSFTYTLDEKVAELVEFLLLKYEAEEPVTEAEMLMIVIKYKDYFPVILKRAREFMELLFGLALIEVGPDHFCVFANTVGLTDEGSDDEGMPENSLLIIILSVIFIKGNCASEEVIWEVLNAVGVYAGREHFVYGEPRELLTKVWVQGHYLEYREVPHSSPPYYEFLWGPRAHSESIKKKVLEFLAKLNNTVPSSFPSWYKDALKDVEERVQATIDTADDATVMASESLSVMSSNVSFSE
notes: MAGE-C2, human, full length, residues 1-373; synthetic gene in pGEX-6p-1 with a 3C protease site after GST; In the ubiquitination assays the GST tag had been cut off with 3C protease; in the pull-down GST was kept; also called MAGE-C2 FL; GST-MAGE-C2; source: E. coli BL21 (DE3), purified (glutathione Sepharose); not shown: GST, N-terminal, kept
B2: GST-tagged MAGE-C2 MHD domain (residues 140-350) (domain or fragment, human, UniProt Q9UBF1 140-350, looked up)
chain: TLDEKVAELVEFLLLKYEAEEPVTEAEMLMIVIKYKDYFPVILKRAREFMELLFGLALIEVGPDHFCVFANTVGLTDEGSDDEGMPENSLLIIILSVIFIKGNCASEEVIWEVLNAVGVYAGREHFVYGEPRELLTKVWVQGHYLEYREVPHSSPPYYEFLWGPRAHSESIKKKVLEFLAKLNNTVPSSFPSWYKDALKDVEERVQATIDT
notes: MAGE-C2, human, MAGE homology domain (MHD), residues 140-350; synthetic gene in pGEX-6p-1; In the ubiquitination assays other forms were used (GST cut off in vitro; Myc-tagged in HEK293T cells); also called MHD^WT; GST-MAGE-C2; source: E. coli BL21 (DE3), purified (glutathione Sepharose); not shown: GST, N-terminal, kept

Biological target: T1, SUMO-MDM2 (full length, residues 1-491) (human, UniProt Q00987 1-491)
T1 construct: MDM2, human, full length, residues 1-491; cloned into a SUMO vector (modified pET-28a); eluted without tag cleavage; also called sumo-tagged MDM2; SUMO-MDM2 fusion protein; source: E. coli BL21 (DE3), purified (HisTrap, Superdex 200)
T1 sequence (Q00987 whole entry, the tested form may be a part): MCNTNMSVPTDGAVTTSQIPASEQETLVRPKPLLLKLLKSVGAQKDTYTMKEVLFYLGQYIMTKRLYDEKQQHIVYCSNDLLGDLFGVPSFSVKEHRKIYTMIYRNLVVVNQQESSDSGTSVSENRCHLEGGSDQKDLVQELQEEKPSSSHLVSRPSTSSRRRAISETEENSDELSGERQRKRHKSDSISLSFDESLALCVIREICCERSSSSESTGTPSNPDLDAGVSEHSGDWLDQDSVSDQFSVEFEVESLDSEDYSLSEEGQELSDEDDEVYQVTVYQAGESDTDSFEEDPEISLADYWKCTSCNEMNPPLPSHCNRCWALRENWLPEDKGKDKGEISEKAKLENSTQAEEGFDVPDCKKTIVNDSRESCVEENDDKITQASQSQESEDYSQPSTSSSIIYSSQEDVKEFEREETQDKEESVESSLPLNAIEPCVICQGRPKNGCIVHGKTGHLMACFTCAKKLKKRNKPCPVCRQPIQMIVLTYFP
Assay: pull-down; GST-tagged MAGE-C2 proteins on glutathione Sepharose beads, SUMO-MDM2 added; both expressed in bacterium; 20 mM Tris pH 8, 150 mM NaCl, 0.2 mM TCEP, 0.02% Triton-100, 5% milk powder, 4°C; anti-MDM2 Western blot (Figure 2A)
Conditions: both partners purified

Binder	binding result
B1	binds
B2	binds
